{"source": "patent US20210324028A1", "biological_target": "human CD122/CD132 on cells of human PBMCs (human) (UniProt P14784)", "sequence (P14784 27-551, chain 1 of 2)": "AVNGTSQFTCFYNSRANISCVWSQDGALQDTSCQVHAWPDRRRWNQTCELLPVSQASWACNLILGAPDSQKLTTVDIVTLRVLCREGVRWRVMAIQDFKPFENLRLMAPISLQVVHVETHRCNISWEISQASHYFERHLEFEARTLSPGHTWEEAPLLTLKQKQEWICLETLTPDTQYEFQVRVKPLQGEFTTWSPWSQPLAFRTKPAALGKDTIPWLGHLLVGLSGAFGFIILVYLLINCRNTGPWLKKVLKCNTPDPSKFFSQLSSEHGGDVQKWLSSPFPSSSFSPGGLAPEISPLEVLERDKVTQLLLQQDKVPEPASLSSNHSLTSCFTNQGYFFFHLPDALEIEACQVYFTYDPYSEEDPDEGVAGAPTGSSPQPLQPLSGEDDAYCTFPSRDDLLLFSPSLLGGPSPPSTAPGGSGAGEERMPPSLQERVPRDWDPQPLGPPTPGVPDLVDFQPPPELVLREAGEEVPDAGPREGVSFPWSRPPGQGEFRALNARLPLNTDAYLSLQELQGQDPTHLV", "sequence (P31785 23-369, chain 2 of 2, further chain)": "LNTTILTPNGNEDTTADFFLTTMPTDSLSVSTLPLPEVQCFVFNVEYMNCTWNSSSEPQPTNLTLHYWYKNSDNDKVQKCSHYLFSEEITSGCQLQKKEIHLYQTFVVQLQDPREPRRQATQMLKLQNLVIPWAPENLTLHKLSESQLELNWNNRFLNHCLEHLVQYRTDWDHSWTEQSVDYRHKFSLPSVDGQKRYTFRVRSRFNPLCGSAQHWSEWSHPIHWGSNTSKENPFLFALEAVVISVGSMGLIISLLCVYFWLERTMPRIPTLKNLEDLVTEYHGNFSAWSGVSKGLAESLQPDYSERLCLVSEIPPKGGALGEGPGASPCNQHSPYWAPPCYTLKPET", "test": "cell-based or functional assay", "data": [{"binder": "Isotype control--IL15 M1 (protein, part only; not given: Isotype control antibody chains and linker, part only) heavy, part: AWVNVISDLKKIEDLIQSMHIDATLYTESNVHPSCKVTAMKCFLLGLQRISLESGDASIHDTVENLIILANNSLSSNGNVTESGCKECEELEEKNIKEFLQSFVHIVQMFINTS", "values": [{"measurement": "pSTAT5 EC50 on human CD8+cm T cells (hPBMC)", "value": 3.67, "unit": "nM"}, {"measurement": "pSTAT5 EC50 on human NK cells (hPBMC)", "value": 0.946, "unit": "nM"}]}, {"binder": "Isotype control--IL15 M2 (protein, part only; not given: Isotype control antibody chains and linker, part only) heavy, part: GWVNVISDLKKIEDLIQSMHIDATLYTESNVHPSCKVTAMKCFLLGLQRISLESGDASIHDTVQNLIILANNSLSSNGNVTESGCKECEELEEKNIKEFLQSFVHIVQMFINTS", "values": [{"measurement": "pSTAT5 EC50 on human CD8+cm T cells (hPBMC)", "value": 37.6, "unit": "nM"}, {"measurement": "pSTAT5 EC50 on human NK cells (hPBMC)", "value": 11.2, "unit": "nM"}]}]}
